# Data published in the DeepSol protein solubility set.
# Test: soluble on expression in E. coli; label from the status in PepcDB or PDB records
row,Sequence,soluble on expression in E. coli
1,SNAMELEQKLNLLNDLIVREIVNPLPPPYKVGVDLGTADIVLVVTDQEGIPVAGALKWASVVKDGLVVDYIGAIQIVRELKAKVERLLGSELFQAATAIPPGTVGRNAEACGHVVAGAGLELVTLVDEPVAAARALGINDGIVVDIGGGTTGIAVIEKGKITATFDEPTGGTHLSLVLAGSYKIPFEEAETIKKDFSRHREIMRVVRPVIEKMALIVKEVIKNYDQTLPVYVVGGTAYLTGFSEEFSRFLGKEVQVPIHPLLVTPLGIALFG,soluble
2,MKEKIPFYNEKEFHYMMKKTKKGTFSGWYIINPENNSVEFSGSFNRQFKLNKPVIPVNTEYVTRKEFNEYKDSNDQRLTKIENKVDKLEIKVDKLEKKVDKLEVKVDKLVETVNAQGEDLNNFKVEVRGTLQSQGETLQLILQTLQGMSKRLDSVEGRLDSMDGRLDSMETRLDKIDPLKLEHHHHHH,not soluble
3,MGHHHHHHSHSLHYIHPYQPNEYLKALVAVGEICQDYDSDKMFPAFGFGARIPPEYTVSHDFAINFNEDNPECAGIQGVVEAYQSCLPKLQLYGPTNIAPIIQKVAKSASEETNTKEASQYFILLILTDGVITDMADTREAIVHASHLPMSVIIVGVGNADFSDMQMLDGDDGILRSPKGEPVLRDIVQFVPFRNFKHASPAALAKSVLAEVPNQVVDYYNGKGIKPKCSSEMY,soluble
4,MSDDEDEGRLQIDESPSDSEDKPSISAPPPLPPPLQETPEFQTTYDAHDQAETSGKEDGELDEDDENDDIEPMEIDEEIQLEIDEKPEDLVKDEQISEPTDKMREEFLKVEKTDENAVVESTSSFSPKLIDEQDLKVEEMSDEKHAQSPVSSDMTTSKSPTPSKKENGLMKPPQSTEKAQRKRKESTDIFSSEKRKLSLETVASSSSSSGSSNLSTTPQRSKRSSSHMATIAISACFTDEDIVSVPMMPIQKTPDTAPHSKRAKRDIGTNVITTRSTDTSGLLCNEAIMDTPPGSQMTLEVTVMYRTKNSLAFRVKGCDLIGFIGDGLPPMASSLTNNIASSMGNNNNKKKTASSSGNEEGKDGRSSSASSNGRGARGGSVLKDGKGDKQKGKRKKEETNDDDLEDENQNNEQYGSKKCELVEVDVAQLHDCHYDGCEKRFQKTTDLEYHISKNHKRRVMMYESICTQTSISSLETQNNSTQIDDDLPPMPQMPILKKEVPIKTPIGNVYEDLSDDDSETKPTDLVLKTPSSSASSAVATLMGIAQVSSSTTSATTSVVPPVGAQRSTPATPVSAKIGINPSMVANALAEKNKQQQQQQQKLNQLQPPHNPSLSTAPSSSSAQPPTMIQAHPMAGVFIPPPFHPAMMNPQMAAMMDQQRIAVAMSQQQQMSRTPSRQTISVSDSHKIHELAKSRENQQRQQSATPKTPSESVSTTGVVTPQRQFLPPQMMQPGTPQSILLQQQQQQQQQQQQAAAQHQIIQQMQMQMQRGMAPQMANQELLMMMMGMPHMVQGVPGFPGVPQLPPK,soluble
5,MTMTPVSDPIPIGNQEDKENIEDAENTMNISPACDRILVDHQYTRDVVITGKCSSLTYKKA,not soluble
6,MKAFDIMKASQIACCFEVGSFKPGNVHKNRDYDDIKYHHFISSGIAFGDVIHQACLEKNNIGNFIKKGVIESKKWSPTNANLGIIMLHMPIAIAASNLDKFSESALKKETEKIIKNTTVQDAIDVYRAIEIALAFVNAPENGPDLKSKDAKDELIEKNLTLYDVFKISSTWDSISNEWTENFKISYKGYNLIKEYYEKYNNINIAVTKTFINLLSNYPDTLIARKKGIDVSKMVSEKAKEVLNNFNEESVLEFDKFLSKEGNKLNPGTTADLIASSLLIFLLDRISNEKTILY,not soluble
7,MAVGGGIGGLLLVGLFLLLGGNPAEIDQVLGGDQTQIESGESTGAGDFDHCQTGADANASDDCRLYYTSFSVNEMWQTLLPAQAGIEYTEPTLTLFKNSTQTGCGFASASTGPFYCPSDQDAYFDLTFFDQMRQFGAENAPLAQMYIVAHEYGHHVQNLEGTLGLSNYNDPGADSNAVKIELQADCYAGIWANHSSEGPDPLLQPITESELDSALLAASAVGDDNIQQRSGGDVNPESWTHGSSQQRKDAFLAGYNTGQMSACDFLGRGVYNDA,not soluble
8,MSKLQQILTYLESEKLDVAVVSDPVTINYLTGFYSDPHERQMFLFVLADQEPLLFVPALEVERASSTVSFPVVGYVDSENPWQKIKHALPQLDFKRVAVEFDNLILTKYHGLKTVFETAEFDNLTPRIQRMRLIK,soluble
9,MSLYLITNRKLCSEERYLEVIKESILSGVENIIIREKDLEYQELRKLYMKIKTKINCIDFQEQISDESLKTNINQKECRNKFKVNFIINSNIEFFEKVDCQGIHLPFKLFLNLIENKYNFNENKILGLSLHKVEEVDYLEKLIRNQNIKIDYITLSHIYETKCKEGLNPKGIELLKEAKKITDIKIIALGGILPSNVKETLKYCDDFAIMSTIMRSKDIKKTISNYNEKLNEGHHHHHH,not soluble
10,MADINPNHTIYVNNLNEKVKKDELKRSLHMVFTQFGEIIQLMSFRKEKMRGQAHIVFKEVSSASNALRALQGFPFYGKPMRIQYAREDSDVISRAKGTFVEKRQKSTKIAKKPYEKPAKNGKSAAEPTQKEPQETDGPGLPNNILFCSNIPEGTEPEQIQTIFSQFPGLREVRWMPNTKDFAFIEYESEDLSEPARQALDNFRITPTQQITVKFASK,not soluble
11,MGSSHHHHHSSGENLYFQGHMKHGIYYSYWEHEWSAKFGPYIEKVAKLGFDIIEVAAHHINEYSDAELATIRKSAKDNGIILTAGIGPSKTKNLSSEDAAVRAAGKAFFERTLSNVAKLDIHTIGGALHSYWPIDYSQPVDKAGDYARGVEGINGIADFANDLGINLCIEVLNRFENHVLNTAAEGVAFVKDVGKNNVKVMLDTFHMNIEEDSFGDAIRTAGPLLGHFHTGESNRRVPGKGRMPWHEIGLALRDINYTGAVIMEPFVKTGGTIGSDIKVWRDLSGGADIAKMDEDARNALAFSRFVLGG,soluble
12,GSHMKEDQVVAEEPGFQDEEESLFQDIDLLQKHGINVADIKKLKSVGICTIKGIQMTTRRALCNVKGLSEAKVDKIKEAANKLIEPGFLTAFEYSEKRKMVFHITTGSQEFDKLLGGGIESMAITEAFGEFRTGKTQLSHTLCVTAQLPGAGGYPGGKIIFIDTENTFRPDRLRDIADRFNVDHDAVLDNVLYARAYTSEHQMELLDYVAAKFHEEAGIFKLLIIDSIMALFRVDFSGRGELAERQQKLAQMLSRLQKISEEYNVAVFVTNQMTADPGATMTFQADPKKPIGGHILAHASTTRISLRKGRGELRIAKIYDSPEMPENEATFAITAGGIGDAKE,soluble
13,MGSDKIHHHHHHMTSAGTIEDAKGPAELRLALRQMLGEDIVLSETEEMLRFCRDWHGDVTTGTVAVIRPRSTQQVAAAVKACRELGLSIVPQGGNTGLVLGAIPDAPERQVVLSLSRMNRIRKIDPADFSAVVESGCILSELKDAIAKMGMFFPLALGAQGSCQIGGNVSTNAGGVNVLRYGMTRELVLGLEVVLPDGSILEGLSTLRKDNRGIDLKQLFIGAEGTLGIITAVSITLTPYPDHVATALLGLASLEDAIRLYRRARRDCCDLMSAFEFMPPLAFTLAQEAMPDLPIPISAEYPAYVLMEISGSGLVDVDDLMQRFLEGAMEEGLVLDGTIAASQTQARNLWLIREGMNEGQAKRGTHMRTDISVPLSQLASFVEEAEKAVSEALPGAVSVSYGHVGDGNVHLNVLPPAGSTPEERIQLIYKAKTVVNEVLDRYTGSISAEHGIGRLKRPDFDARLPATRRKLLTALKHAVDPEMIMNPGCQLRF,not soluble
14,MSLATEQIQHIAIVGCVHGKYREMYRQLSEYEKSTGKEISFVICTGDMQTLRYEADLVYLKVPPKYKQMGDFHLYYEGKEKAPYLTLFIGGNHESSNVLLHLYNGGFVCFNMYYLGVCSCININGLRIVGVSGIYKSFDEKKPYTYPPSPNDVVSLFHTRNYVIQMLSNLSQSSQIDISLSHDWPQGIVMKGNYKQLYRFQPGFKKDGASLGSPINKVILNTLKPKYWISGHMHCEYHAEEGPTHFIALGKIGYKNAISYLDLPLKQKTDLEYDKDWVCNLIMTWPAFSNKAQFPDLSYSISELLSKRTKELDKKIIELWEKYIGLKIIYDSDTFDIQFTSRRFYIEKIYNELNINEGHHHHHH,soluble
15,MSWKHIKIPNGDTMIFCNSFITRKSSMNIVVTHTPIVTTLEMQKAYEPLAKHNVNIFAFDFSGTGKSDGYEKDFSRNSIVKDLDSVITYIEKNYSSNIHLYGNTGIGGMFAQYYACSDNKLKSFAQFACVDYKNTTGVGYTYLTVKLLNFFFKFLPNFHITVKPPKYKGYNEVYDNEFYKIFEKKNPHIWKNSTKIINTMLECFIAKDSKIKDGVNIPTLVFKTLHDRYFKTQYFDSYYNSLKCKKKLVEINNVHNSYYIDSEKFCQEAYDWFVENQ,not soluble
16,MLPNGRKWLDLWRKNVTVTAGGFLAISATTGVAGYEMAKDDVTLIKNGNKQEIRTHAKTVKELLAEQNIQPRKEDYVYPSLHSPITDDLHIVWEASKEVTLTVNGKKKKIWTTADTVAELLRSQHVAVGAYDKVAPALSAKIQKGMDIGVEKAFPVHVNVGGKQQQVWTTSTTVADFLKQQGIQLGQFDRIEPSLHETVKEQMTIRVIRVKKVTDVVEEPVDFAVVTKRDDSLPKGERRVIQPGEKGMVQKTYEVTLENGKETARKLIAAKTLKESKARIVAIGTKTVRSAAAPDRPSSRGSDHAAKEFYVTATAYTAYCAGCSGITSTGINLRKNPSAKVIAVDPSIIPLGSKVYVEGYGYAIAADTGSGIRGYKIDVFFPERSDAFRWGRKRVKIRVLP,not soluble
17,MAHHHHHHMFYVDACSQNYRMPNSAPVFSQGFPQPNRAPSLVSPNDVQNCTNDGLVNPHQAPLFTVSQQGSVVAASVLPRTVLWTANGMYGVTQMREGPEEGATRFVPSKSPDGTPVSAMQSMFLPPMQQQQQQQQQASNCPLLYILTTVAVPQTYPQTSLQEQKSQHVTPVTHQIISMKGPSVAPSQSIGINTLNPSCITNNSDAMQTCGSGSKVNVNVVCRHFIKSCCNRRKCRFLHTLNEAPLANI,not soluble
18,MGSDKIHHHHHHVRFCCHHDWLYGVLHLPQQPVTRGVLIVVGGPQYRVGSHRQFVLLARYLAERGIAVMRFDFRGMGDSDGEIRTFEHVGEDLRSAADFFFSECPFLEDIVIWGLCDAASAALFHAHQDSRVSGLVLLNPWVRTEQGIAKAYLKHYYLERLFDPEFWKKLLGGKFNPLASIRSLYEFGRNSLRGGKSPAVSEKSAGSACDLTVPLPERMLDGLKRFQGKILIITSGNDLTAREFLDLVDSSADWQATLRTKQTELCHMESANHTFSTREWRDQVTELTANRVLSW,not soluble
19,MNGEEIIRFERVTKEYDGTVVLDDVSFAMERGKFYTLLGPSGCGKTTILRLIAGFIEPTEGTIYFHGKPIQNVPPNKRQVNTVFQDYALFPHLDVFENVAFGLRVKKMKEADIRQKVSEALRFVNLEGYERRRIQEMSGGQRQRVAIARAIVNEPEVLLLDEPLSALDLKLRTEMQYELRELQRRLGITFIFVTHDQEEALAMSDYIFVLNKGKIQQFGTPKDIYDEPINRFVADFIGESNILSGRMIDDFLVEFAGKQFACVDRGFAPNEPVDVVIRPEDLELAAPEDGQIVIRVDSLLFRGVHYEICGYDENGNEWLVHSTKKAEVGETVGLRFEPEAIHVMRVEREDEGA,soluble
20,GMPNFSKNEEVLFSAVNEIFEEKIPFNKIIGLKVRFISPEQVKLSFEMRDELIGNAIRRMLYGGVISSAIDMTAGLAAFMGFQEKMSGKPMEEKLAMIGRLSTMSLHVEYLRPGLGREFVCTGYNVRTGNKVAVIRTELMNDQDELIAVGSVSYILV,soluble
21,MAANSLPTNVASPVQTTTPTTDKRSIGFIDRQLGTNPAELPPLPYGYDALEKAIDAETMKLHHDKHHAAYVNNLNNALKKHPELQNSSVEALLRDLNSVPEDIRTTVRNNGGGHLNHTIFWQIMSPDGGGQPTGDIAQEINQTFGSFEEFKKQFNQAGGDRFGSGWVWLVRNPQGQLQVVSTPNQDNPIMEGSYPIMGNDVWEHAYYLRYQNRRPEYLNNWWNVVNWSEINRRTQASRQSNSHHHHHH,soluble
